Reference: patent US20250205190A1, “NUTRITIONAL COMPOSITION” (N.V. NUTRICIA, priority 2022, published 2025)

Key:
Assay in all cases: i-screen in vitro colon microbiota model, fermentation of infant faecal pool, 16S rRNA sequencing
Type in all cases: cell-based
Details in all cases: t = 24 hours anaerobic fermentation, SIEM medium, 37° C., triplicate, ingredient conc. per Table 1
Bacteroidaceae = test system: Bacteroidaceae
Method: (§1) In an in vitro colon microbiota model, i-screen™ (TNO, Zeist, Netherlands), the effect of infant milk formula ingredients on the anaerobic fermentation of infant microbiota was assessed.
(§2) The in vitro microbiota model mimics colonic conditions. Before a consumed ingredient reaches the colon in a human, already a part of the digestion/absorption has taken place in the gastrointestinal tract preceding the colon. For each ingredient the degree of digestion/absorption before reaching the colon varies and this was taken into account when selecting the ingredient concentrations to be tested (see Table 1).
(§3) The infant faecal pool consisted of samples obtained from faeces of 5 European infants aged 3.5-8.5 months. The samples were thawed, homogenized, aliquoted and stored at −80° C. till the start of the i-screen assay run.
(§4) • Before starting the fermentation with the test ingredients. The infant fecal pool was incubated in an anaerobic flask for 4 hours in SIEM (simulated ileal environment media) medium (pH 5.8) under anaerobic conditions (37° C.; 300 rpm). Subsequently this SIEM medium with feces was homogenized and distributed into a 96 w-plate. • The test ingredients were pre-diluted in a higher concentration in fresh SIEM medium and added to the existing medium in the 96 wells plate. For milk fat the addition method was slightly adapted, milk fat was added to fresh SIEM medium at 45° C., subsequently thoroughly homogenized, followed by addition to the wells in the 96 w plate. • The i-screen experiment included an untreated control (microbiota only), an positive control (Inulin, Raftiline ST), blanks (SIEM medium only) and technical controls (internal controls for DNA isolation and sequencing). • Each test condition was conducted in triplicate. • After 24 hours of fermentation in SIEM medium under anaerobic conditions at 37° C., samples were collected for DNA analyses. […]
(§5) Changes in the microbiota composition were analyzed by using 16S rDNA amplicon sequencing. […] Amplicon quality and size were analyzed on a Fragment Analyzer (Advanced Analytical Technologies, Inc.). […]

Enterobacteriaceae = test system: Enterobacteriaceae
Method: as §1, §2, §3, §4, §5

Bifidobacteriaceae = test system: Bifidobacteriaceae
Method: as §1, §2, §3, §4, §5

B1: Lactoferrin (protein, UniProt P24627 20-708, looked up)
Lactotransferrin: APRKNVRWCTISQPEWFKCRRWQWRMKKLGAPSITCVRRAFALECIRAIAEKKADAVTLDGGMVFEAGRDPYKLRPVAAEIYGTKESPQTHYYAVAVVKKGSNFQLDQLQGRKSCHTGLGRSAGWIIPMGILRPYLSWTESLEPLQGAVAKFFSASCVPCIDRQAYPNLCQLCKGEGENQCACSSREPYFGYSGAFKCLQDGAGDVAFVKETTVFENLPEKADRDQYELLCLNNSRAPVDAFKECHLAQVPSHAVVARSVDGKEDLIWKLLSKAQEKFGKNKSRSFQLFGSPPGQRDLLFKDSALGFLRIPSKVDSALYLGSRYLTTLKNLRETAEEVKARYTRVVWCAVGPEEQKKCQQWSQQSGQNVTCATASTTDDCIVLVLKGEADALNLDGGYIYTAGKCGLVPVLAENRKSSKHSSLDCVLRPTEGYLAVAVVKKANEGLTWNSLKDKKSCHTAVDRTAGWNIPMGLIVNQTGSCAFDEFFSQSCAPGADPKSRLCALCAGDDQGLDKCVPNSKEKYYGYTGAFRCLAEDVGDVAFVKNDTVWENTNGESTADWAKNLNREDFRLLCLDGTRKPVTEAQSCHLAVAPNHAVVSRSDRAAHVKQVLLHQQALFGKNGKNCPDKFCLFKSETKNLLFNDNTECLAKLGGRPTYEEYLGTEYVTAIANLKKCSTSPLLEACAFLTR
notes: Friesland Campina, Vivinal Lactoferrin, comprises 96 wt. % lactoferrin; 2 mg/ml in well
Average relative abundance (%) [st. dev] Bacteroidaceae (Bacteroidaceae): 19.81 (0.48) %
Average relative abundance (%) [st. dev] Enterobacteriaceae (Enterobacteriaceae): 41.73 (1.64) %
Average relative abundance (%) [st. dev] Bifidobacteriaceae (Bifidobacteriaceae): 9.39 (1.50) %
